Test results as given in US20250011823A1, “Method for preparing ultra-low molecular weight Dendrobium oligosaccharides by enzymatic hydrolysis and its application” (Zhejiang A & F University, priority 2022, published 2025).

Assay: ThDPS glycosidase activity determination (DNS method), hydrolysis of Dendrobium polysaccharides
Format: biochemical
Conditions: for enzymatic activity of expression product (hydrolysis of Dendrobium polysaccharides): crude supernatant of recombinant E. coli BL21 (DE3)
Description: Enzymatic activity definition: the amount of enzyme that can convert 1micromole of substrate per 1 minute at 37° C. is defined as one unit of enzymatic activity (U).
Enzymatic activity determination: ThDPS glycosidases can decompose Dendrobium polysaccharides into mannan oligosaccharides. The mannan oligosaccharide has reducibility and can undergo a certain chemical reaction with a DNS reagent under alkaline conditions to generate 3-amin-5-nitrosalicylic acid that is brownish-red under boiling conditions. The amount of reducing sugar generated can be measured with a spectrophotometer. The gradation of the color of the acid is related to the content of the reducing sugar.
Specific steps for enzymatic activity determination are as follows: a total reaction system is 2 mL, containing 1 mL of a Dendrobium polysaccharide solution with a concentration of 4 g/L, 200 μL of a phosphate buffer with a concentration of 200 mM, and 10 μL of an enzyme solution. 10 μL of distilled water is added to a control group, and water is replenished to a total volume of 2 mL for all reaction solutions. A mixed reaction solution is incubated at 37° C. for 30 min. After being taken out, the incubated mixed reaction solution is placed in a boiling water bath for 1 min to inactivate the enzymes. 2 mL of a DNS solution is added into each tube, and the tube is placed in the boiling water bath for 3 min, and then is rapidly cooled, and 1 mL of distilled water is added […]. The absorbance is measured at the wavelength of 540 nm to determine the enzymatic activity.
The recombinant bacteria constructed in step 1 were inoculated into a test tube containing 5 mL of LB medium (containing 100 ug/mL ampicillin), and underwent shake-flask culture at 37° C. and 200 r/min for 16 h. As a seed solution, the cultured bacterial solution was transferred into 100 mL of LB liquid medium (containing 100 ug/mL ampicillin) with an inoculum size of 1%, and underwent shake-flask culture at 37° C. and 200 rpm until OD600 was 0.6. 0.1 mM of IPTG was added to induce expression, and shaking culture was carried out for 24 h at 37° C. and 200 rpm. The obtained fermentation broth was centrifuged at 8000×g and 4° C. for 10 min, the supernatant was removed, and bacterial cells were collected. The bacterial cells were resuspended with 8 mL of 50 mM PBS of pH=7.0. After ultrasonic crushing, centrifugation was carried out for 10 min at 4° C. and 12000×g, precipitates were removed, the supernatant was collected for the hydrolysis reaction of Dendrobium polysaccharides, and hydrolysis products were detected by using a DNS method.
By taking Dendrobium polysaccharides as a substrate, the enzymatic property of ThDPS was characterized. • 1. 0.2 g, 0.4 g, 0.8 g, 1.2 g, 1.6 g, 2.0 g, 2.4 g, and 3 g of Dendrobium polysaccharides were (Mw>100000 Da) weighed and dissolved in 1 L of distilled water to prepare Dendrobium polysaccharide solutions, and then 20 μL of an enzyme solution was added and reacted at 37° C. for 30 min. The enzyme solution was an enzyme solution of ThDPS prepared in Example 2 diluted with deionized water to a concentration of 100 μg/mL. […] Optimum temperature determination: 10 g/L Dendrobium polysaccharides were formulated as a reaction substrate. To a reaction system was added 0.4 mL of Dendrobium polysaccharides with a final concentration of 2 g/L, 200 μL of a 500 mM Tris-HCl buffer, and 20 μl of an enzyme solution (providing 10 U of catalytic activity), and 20 μl of distilled water was added to a control group. The water was replenished to a total volume of 2 mL for all reaction solutions. After fair mixing, the mixtures were placed in water baths at 20° C., 30° C., 40° C., 50° C., […], 70° C., 80° C., and […] and incubated for 30 min. The enzyme solution was an enzyme solution of ThDPS prepared in Example 2 diluted with deionized water to a concentration of 100 μg/mL. […]

B1: THGH: T. halotolerans-derived glycosidase expressed in E. coli from the non-optimized gene SEQ ID NO.1 (protein)
chain: MRKRLTVAAATILALLASVFVFAQPANAATGFYVDNGRLYEAGGQEFVIRGVSHPHAWYAQETDSFAGIKSHGANTVRVVLSNGVRWTKNDAADVANVISLCKQNRLICMLEVHDTTGYGEQSGASTLDQAVDYWIEIQSALEGQEDYVLINIGNEPYGNDSATVADWASDTSAAIQRMRDAGFDHTLVVDAPNWGQDWSHTMRDNAGSVYTSDPTGNTVFSIHMYGVYEQGSTVTSYLEHFVNAGLPIMIGEFGHDHSDGNPDEDTIMAEAERLGLGYIGWSWSGNGGGVEYLDMVNNFDADSLTSWGQRIFYGANGISSTAEEATVYGGGAPTDPPTDPPAEGDCSADYTTVGSWGGGFQGEVTVTAGDSAISNWTVSWTFPGGQSVSHGWNASFGGGSPVTASNAPYNGQLGAGQSTTFGFIGSGSAPGSLTLTCTTD
modifications: Thermobifida halotolerans
DNS method
  enzymatic activity of expression product (hydrolysis of Dendrobium polysaccharides): 68 U/OD bacterial cells
Expression products of recombinant E. coli, DNS method, FIG. 1
  hydrolysis activity on the Dendrobium polysaccharides (in words): significant hydrolysis activity

B2: ThDPS: T. halotolerans-derived glycosidase (SEQ ID NO.3) expressed in E. coli from codon-optimized gene SEQ ID NO.2, with 6× His-tag (protein)
chain: B1 chain
modifications: 6xHis tag; Thermobifida halotolerans
50 mM phosphate buffer, 37° C., 30 min
  pH of maximum activity: 7.0
2 g/L Dendrobium polysaccharides, Tris-HCl buffer, 30 min, 20-90° C.
  optimal reaction temperature: 60 °C
Dendrobium polysaccharide 0.2 g/L to 3 g/L
  substrate inhibition (in words): no significant substrate inhibition
codon-optimized sequence, E. coli BL21 (DE3)
  increase of expression enzymatic activity level versus THGH without codon optimization: 2.75 times
DNS method
  enzymatic activity of expression product (hydrolysis of Dendrobium polysaccharides): 187 U/OD bacterial cells
Range of pH 6.0 to 10.0
  relative activity (percentage of maximum activity): more than 90%
Substrate concentration 2.4 g/L, 37° C., 30 min
  specific enzymatic activity: 5100 U/mg
Temperature between 40° C. and 60° C.
  relative activity (percentage of maximum activity): ≥ 85%
